# In article PMC6720714, “Structural and Biological Characterizations of Novel High-Affinity Fluorescent Probes with Overlapped and Distinctive Binding Regions on CXCR4” (Molecules, 2019):
# Bridge positions count the residues as written; N and C are the ends. Square brackets hold non-standard residues; d marks the D form. Ends that are not written are not given here. Peptide text beside a SMILES is read from it. 2Nal = N[C@@H](Cc1ccc2ccccc2c1)C(=O)O; Lys(iPr) = CC(C)NCCCC[C@H](N)C(=O)O; Cit = NC(=O)NCCC[C@H](N)C(=O)O
# Tests used:
# [1] = biological target: CXC-type chemokine receptor 4 (CXCR4) (UniProt P61073); test: competitive binding on cells, fluorescence by microplate reader; 12G5-based: CHO-CXCR4 cells, antibody 12G5 (250 ng/mL; 1:2000) with gradient concentrations of ligand in 0.5% BSA/PBS, 40 min, 4 °C; FITC-conjugated goat anti-mouse IgG 30 min; excitation 485 nm, emission 535 nm
# Sequence of CXC-type chemokine receptor 4 (CXCR4) (UniProt P61073) (P61073 whole entry): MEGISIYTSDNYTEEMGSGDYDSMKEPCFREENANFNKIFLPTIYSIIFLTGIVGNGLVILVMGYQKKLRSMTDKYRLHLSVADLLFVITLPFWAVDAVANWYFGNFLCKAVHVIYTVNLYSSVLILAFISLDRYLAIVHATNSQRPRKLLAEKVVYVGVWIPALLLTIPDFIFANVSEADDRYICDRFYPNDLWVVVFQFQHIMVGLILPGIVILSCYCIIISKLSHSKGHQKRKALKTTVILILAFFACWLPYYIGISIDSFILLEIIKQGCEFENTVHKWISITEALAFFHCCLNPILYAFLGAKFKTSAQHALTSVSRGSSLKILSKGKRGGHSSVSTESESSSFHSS
# [2] = biological target: CXC-type chemokine receptor 4 (CXCR4) (UniProt P61073); test: competitive binding on cells, fluorescence by microplate reader; FITC-DV1-based: CHO-CXCR4 cells, 1 μM FITC-DV1 with gradient concentrations of ligand in 1% BSA/PBS, 50 min, 4 °C, dark, washed twice; excitation 485 nm, emission 535 nm
# [3] = biological target: CXC-type chemokine receptor 4 (CXCR4) (UniProt P61073); test: competitive binding on cells, fluorescence by microplate reader; FITC-CVX15-based: CHO-CXCR4 cells, 400 nM FITC-CVX15 with gradient concentrations of ligand in 1% BSA/PBS, 50 min, 4 °C, dark, washed twice; excitation 485 nm, emission 535 nm
# [4] = biological target: T1, CXCR4 (Homo sapiens, UniProt P61073); test: Three parallel CXCR4 competitive binding assays (FITC-CVX15, FITC-DV1, 12G5) compared; parameters: expressed in transfected cells; host or cells: CHO (CHO-CXCR4, G418-selected); conditions: for difference of IC50 values between the three binding systems: Type 1, relative to the minimum values
# T1 sequence (P61073 whole entry): as above
# Protocol: (§1) Gradient concentrations of CXCR4 ligands were prepared with 1% BSA/PBS. CHO-CXCR4 cells were cultured and diluted into 5 × 10^5 cells/mL in 0.5% BSA/PBS. One hundred microliters of above cell solutions were added to each well of a 96-well plate and washed twice with 0.5% BSA/PBS. Cells were then incubated with 100 μL primary 12G5 Ab (1:2000, mouse anti-human CD184 antibody, BD Biosciences, CA, USA) in 0.5% BSA/PBS except for negative control group and gradient concentrations of CXCR4 ligands for 40 min on a shaker at 4 °C.
# [5] = biological target: CXC-type chemokine receptor 4 (CXCR4) (UniProt P61073); test: saturation binding on cells, fluorescence by microplate reader
# [6] = biological target: T1, CXCR4; test: cell-based
# [7] = biological target: T1, CXCR4; test: FITC-CVX15-based competitive binding assay on CHO-CXCR4 cells; parameters: expressed in transfected cells; host or cells: CHO (CHO-CXCR4, G418-selected)
# [8] = biological target: T1, CXCR4; test: 12G5 antibody-based competitive binding assay on CHO-CXCR4 cells; parameters: expressed in transfected cells; host or cells: CHO (CHO-CXCR4, G418-selected)
# Protocol: as §1
# [9] = biological target: T2, CXC-type chemokine receptor 4 (CXCR4) (UniProt P61073 1-352); test: competitive binding on cells, fluorescence by microplate reader; FITC-DV1-based: CHO-CXCR4 cells, 1 μM FITC-DV1 with gradient concentrations of ligand in 1% BSA/PBS, 50 min, 4 °C, dark, washed twice; excitation 485 nm, emission 535 nm; conditions: one partner purified
# T2 construct: also called CD184; CHO-CXCR4
# T2 sequence (P61073 whole entry): as above
# [10] = biological target: T2, CXC-type chemokine receptor 4 (CXCR4); test: competitive binding on cells, fluorescence by microplate reader; FITC-CVX15-based: CHO-CXCR4 cells, 400 nM FITC-CVX15 with gradient concentrations of ligand in 1% BSA/PBS, 50 min, 4 °C, dark, washed twice; excitation 485 nm, emission 535 nm; conditions: one partner purified
# [11] = biological target: T2, CXC-type chemokine receptor 4 (CXCR4); test: competitive binding on cells, fluorescence by microplate reader; 12G5-based: CHO-CXCR4 cells, antibody 12G5 (250 ng/mL; 1:2000) with gradient concentrations of ligand in 0.5% BSA/PBS, 40 min, 4 °C; FITC-conjugated goat anti-mouse IgG 30 min; excitation 485 nm, emission 535 nm; conditions: one partner purified
molecule,measurement,setting,value
CVX15 (peptide),IC50,[1],6 nM
same,IC50,[2],6.8 nM
same,IC50,[3],6.2 nM
CC(C)NCCCC[C@H](NC(=O)[C@H]1CCC(=O)N[C@@H](Cc2ccccc2)C(=O)N[C@@H](Cc2ccc(O)cc2)C(=O)N[C@@H](CCCCNC(C)C)C(=O)N[C@H](CCCNC(=N)N)C(=O)N[C@@H](Cc2ccc3ccccc3c2)C(=O)NCC(=O)N1)C(N)=O [LY2510924] (FY[Lys(iPr)][dR][2Nal]G[dE][Lys(iPr)]-NH2; lactam N-7),IC50 from 12G5-based assay versus IC50 from FITC-CVX15 and FITC-DV1 assays,[4]; Type 3,over two-fold higher
FITC-CVX15 (peptide),concentration at which the fluorescent signal reached a plateau,[5],400 nM
CC(C)C[C@H](NC(=O)[C@H](CS)NC(=O)[C@H](CS)NC(=O)[C@H](CCCCN)NC(=O)[C@H](CC(=O)O)NC(=O)[C@@H]1CCCN1C(=O)[C@H](CCCNC(=N)N)NC(=O)[C@H](Cc1c[nH]cn1)NC(=O)[C@H](Cc1c[nH]c2ccccc12)NC(=O)[C@H](CO)NC(=O)[C@H](C)NC(=O)CNC(=O)[C@@H](N)CC(C)C)C(=O)NCC(=O)N[C@@H](Cc1ccc(O)cc1)C(=O)N[C@@H](CCC(N)=O)C(=O)N[C@@H](CCCCN)C(=O)N[C@@H](CCCNC(=N)N)C(=O)N1CCC[C@H]1C(=O)N[C@@H](CC(C)C)C(=O)N1CCC[C@H]1C(=O)O [V1] (H-LGASWHRPDKCCLGYQKRPLP-OH),difference of IC50 values between the three binding systems,[4],less than two folds
same,IC50,[6],676 nM
same,IC50,[7],687 nM
same,IC50,[8],712 nM
N=C(N)NCCC[C@@H]1NC(=O)[C@@H]2CSSC[C@H](NC(=O)[C@H](Cc3ccc4ccccc4c3)NC(=O)[C@H](CCCNC(=N)N)NC(=O)[C@H](CCCNC(=N)N)NC(=O)[C@H]3CCCN3C(=O)CNC1=O)C(=O)N[C@@H](Cc1ccc(O)cc1)C(=O)N[C@@H](CCC(N)=O)C(=O)N[C@@H](CCCCN)C(=O)N1CCC[C@@H]1C(=O)N1CCC[C@H]1C(=O)N[C@@H](Cc1ccc(O)cc1)C(=O)N[C@@H](CCCNC(=N)N)C(=O)N[C@@H](CCCNC(N)=O)C(=O)N2 [CVX15] (cyclo(RR[2Nal]CYQK[dP]PYR[Cit]CRG[dP]); disulfide 4-13),difference of IC50 values between the three binding systems,[4],less than two folds
CC(C)C[C@@H](N)C(=O)NCC(=O)N[C@H](C)C(=O)N[C@H](CO)C(=O)N[C@H](Cc1c[nH]c2ccccc12)C(=O)N[C@H](Cc1c[nH]cn1)C(=O)N[C@H](CCCNC(=N)N)C(=O)N1CCC[C@@H]1C(=O)N[C@H](CC(=O)O)C(=O)N[C@H](CCCCN)C(=O)N[C@H](CS)C(=O)N[C@H](CS)C(=O)N[C@H](CC(C)C)C(=O)NCC(=O)N[C@H](Cc1ccc(O)cc1)C(=O)N[C@H](CCC(N)=O)C(=O)N[C@H](CCCCN)C(=O)N[C@H](CCCNC(=N)N)C(=O)N1CCC[C@@H]1C(=O)N[C@H](CC(C)C)C(=O)N1CCC[C@@H]1C(N)=O [DV1] (H-[dL]G[dA][dS][dW][dH][dR][dP][dD][dK][dC][dC][dL]G[dY][dQ][dK][dR][dP][dL][dP]-NH2),difference of IC50 values between the three binding systems,[4],less than two folds
[dL]G[dA][dS][dW][dH][dR][dP][dD][dK][dC][dC][dL]G[dY][dQ][dK][dR][dP][dL][dP] (cysteine pairing not given here; also: dimer (linkage not given here)) [DV1 dimer],IC50,[9],25.6 nM
same,IC50,[10],29.4 nM
same,IC50,[11],67 nM
